Data reported in patent CN108299557A (HANGZHOU HANSI BIOMEDICAL CO LTD, dated 2018).

Legend:
PD-1-his抗原 = target: T1, PD-1-his抗原 (UniProt Q15116 25-167, limits assumed); test: binding ELISA, PD-1-his coated, HRP anti-human IgG
T1 construct: not shown: his tag

PD-1-hIgGFc抗原 [1] = target: T2, PD-1-hIgGFc抗原 (UniProt Q15116 25-167, limits assumed); test: competition ELISA, PD-1-hIgGFc coated, competitor PDL2-his tag 1.0 ug/ml, HRP anti-his tag
T2 construct: not shown: human IgG Fc

PD-1-hIgGFc抗原 [2] = target: T2, PD-1-hIgGFc抗原; test: competition ELISA, PD-1-hIgGFc coated, competitor PDL1-mIgG2aFc 0.6 ug/ml, HRP anti-mouse IgG

T2 sequence (Q15116 25-167 limits assumed): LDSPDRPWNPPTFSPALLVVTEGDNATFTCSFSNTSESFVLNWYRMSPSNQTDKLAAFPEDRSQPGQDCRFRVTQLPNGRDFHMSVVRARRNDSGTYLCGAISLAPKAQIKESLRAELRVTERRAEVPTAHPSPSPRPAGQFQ
T1 sequence (Q15116 25-167 limits assumed): as above

EC50 (PD-1-his抗原): 0.04 nM
EC50 (PD-1-hIgGFc抗原 [1]): 1.83 nM
EC50 (PD-1-hIgGFc抗原 [2]): 0.474 nM
B1: 人源化抗体H8L2 (抗PD-1的IgG类抗体变体) (antibody)
heavy: EVQLVQSGGGLVQPGGSLKLSCAASGFTFSSYGMSWVRQAPGKGLDWVATISGGGRDTYYPDSVKGRFTISRDNSKNNLYLQMNSLRAEDTALYYCARQKGEAWFAYWGQGTLVTVSSASTKGPSVFPLAPCSRSTSESTAALGCLVKDYFPEPVTVSWNSGALTSGVHTFPAVLQSSGLYSLSSVVTVPSSSLGTKTYTCNVDHKPSNTKVDKRVESKYGPPCPPCPAPEFLGGPSVFLFPPKPKDTLMITRTPEVTCVVVDVSQEDPEVQFNWYVDGVEVHNAKTKPREEQFNSTYRVVSVLTPLHQDWLNGKEYKCKVSNKGLPSSIEKTISKAKGQPREPQVYTLPPSQEEMTKNQVSLTCLVKGFYPSDIAVEWESNGQPENNYKTTPPVLDSDGSFFLYSRLTVDKSRWQEGNVFSCSVMHEALHAHYTQKSLSLSLGK
light: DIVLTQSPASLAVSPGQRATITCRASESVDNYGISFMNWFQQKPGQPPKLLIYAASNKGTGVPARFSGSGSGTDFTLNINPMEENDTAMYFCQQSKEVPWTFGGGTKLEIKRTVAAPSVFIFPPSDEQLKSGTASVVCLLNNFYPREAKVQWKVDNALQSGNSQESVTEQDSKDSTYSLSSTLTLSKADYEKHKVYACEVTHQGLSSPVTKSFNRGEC
notes: ACC CCC CTG; CAC GCC CAC) confirms; The constant region looks like IgG4; also called 18A10 H8L2; H8L2突变体
